According to patent US20200270321A1 (Hoffmann-La Roche, published 2020):
Positions count from the first letter of the chain named. Numbers in names are those of the source. One block for each binder: values may come before it.

What was measured:
[1] = target: T1, human fibroblast activation protein (huFAP) on cells (human, UniProt Q12884 1-760); test: flow cytometry on WM-266-4 cells; PE anti-human IgG Fc-gamma F(ab')2; MFI
T1 construct: Transfected in NIH/3T3-huFAP clone 39; also called NIH/3T3-huFAP clone 39; WM266-4

[2] = target: T2, human 4-1BB (CD137) on cells (human, UniProt Q07011 24-255); test: flow cytometry on activated human T cells, gate CD4+; PE anti-human IgG Fc-gamma F(ab')2; MFI baseline corrected
T2 construct: whole, on cells; also called 4-1BB+ human T cells
T2 sequence (Q07011 24-255): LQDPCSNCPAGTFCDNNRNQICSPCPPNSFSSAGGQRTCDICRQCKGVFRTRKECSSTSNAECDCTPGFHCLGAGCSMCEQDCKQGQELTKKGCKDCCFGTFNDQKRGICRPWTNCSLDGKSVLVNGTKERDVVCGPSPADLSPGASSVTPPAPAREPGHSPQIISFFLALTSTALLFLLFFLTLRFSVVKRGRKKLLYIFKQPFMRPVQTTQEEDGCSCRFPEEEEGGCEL

[3] = target: T1, human fibroblast activation protein …; test: flow cytometry on MV-3 cells; PE anti-human IgG Fc-gamma F(ab')2; MFI
cyCD19 ECD = target: T3, cyCD19 ECD (cynomolgus); test: binding to CD19 ECD; method not stated
T3 construct: extracellular domain; also called cynomolgus CD19 ectodomain

[4] = target: T4, monomeric human CD19 Fc (kih) fusion protein (human, UniProt P0DOX5 223-449 = IgG part); test: SPR (ProteOn XPR36), Fab from bacterial supernatant captured by anti-human Fab, monomeric CD19-Fc as analyte
T4 construct: also called monomeric CD19-Fc
Method: In order to further characterize the ELISA-positive clones, the off-rate was measured by surface plasmon resonance and compared with the parental humanized clone 8B8.
For this experiment, 7000 RU of polyclonal anti-human Fab antibody were immobilized on all 6 channels of a GLM chip by Amine coupling (NaAcetate pH4.5, 25 μl/min, 240 s) (vertical orientation). Each antibody-containing bacterial supernatant was filtered and 2-fold diluted with PBS, and then injected for 360s at 25 μl/minute to achieve immobilization levels of between 100 and 400 response units (RU) in vertical orientation. […] Regeneration was performed by two pulses of 10 mM glycine pH 1.5 and 50 mM NaOH for 30 s at 90 ul/min (horizontal orientation). Dissociation rate constants (koff) were calculated using a simple one-to-one Langmuir binding model in ProteOn Manager v3.1 software by simultaneously fitting the sensorgrams.

huCD19 ECD = target: T5, huCD19 ECD (human, UniProt P15391 20-291); test: binding to CD19 ECD; method not stated
T5 construct: also called human CD19 ectodomain
T5 sequence: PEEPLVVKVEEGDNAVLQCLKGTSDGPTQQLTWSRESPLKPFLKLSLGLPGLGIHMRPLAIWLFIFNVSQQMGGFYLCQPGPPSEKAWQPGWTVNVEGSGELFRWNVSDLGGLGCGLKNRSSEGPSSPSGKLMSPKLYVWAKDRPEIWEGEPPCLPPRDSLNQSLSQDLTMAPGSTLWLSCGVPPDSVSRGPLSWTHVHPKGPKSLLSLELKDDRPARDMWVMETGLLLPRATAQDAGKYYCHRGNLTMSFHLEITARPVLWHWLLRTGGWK

EC50 (read off the curve) [1]: ~1 nM
binding result [2]: no binding (tested: about 300 nM)
EC50 (read off the curve) [3]: ~1 nM
B1: bivalent binding FAP (28H1)-targeted huIgG1 P329G LALA (antibody, V domains shown)
VH: EVQLLESGGGLVQPGGSLRLSCAASGFTFSSHAMSWVRQAPGKGLEWVSAIWASGEQYYADSVKGRFTISRDNSKNTLYLQMNSLRAEDTAVYYCAKGWLGNFDYWGQGTLVTVSS
VL: EIVLTQSPGTLSLSPGERATLSCRASQSVSRSYLAWYQQKPGQAPRLLIIGASTRATGIPDRFSGSGSGTDFTLTISRLEPEDFAVYYCQQGQVIPPTFGQGTKVEIK
notes: the rest is said to be human IgG1 P329G LALA; also called FAP(28H1)-targeted hu IgG1 P329G LALA control molecule

EC50 (cyCD19 ECD): 0.313 µg/mL
B2: wild-type humanized anti-human CD19 antibody 8B8 (antibody, V domains shown)
VH: QVQLVQSGAEVKKPGASVKVSCKASGYTFTDYIMHWVRQAPGQGLEWMGYINPYNDGSKYTEKFNGRVTMTSDTSISTAYMELSRLRSDDTAVYYCARGTYYYGSALFDYWGQGTTVTVSS
VL: DIVMTQTPLSLSVTPGQPASISCKSSQSLENSNGNTYLNWYLQKPGQSPQLLIYRVSKRFSGVPDRFSGSGSGTDFTLKISRVEAEDVGVYYCLQLTHVPYTFGQGTKLEIK
notes: also called wt 8B8

koff [4]: 4.37e-06 s⁻¹
B3: affinity-matured 8B8-derived clone 2B11, Fab in bacterial supernatant (Fab, V domains shown)
VH: B2 VH with N65Q, S105P, A106Q
VL: B2 VL with N31T, N33T, N35T, T97L, H98E, V99D
notes: tested as a soluble Fab from bacterial supernatant; also called 8B8-2B11; CD19 (8B8-2B11)

EC50 (cyCD19 ECD): 0.255 µg/mL
EC50 (huCD19 ECD): 0.084 µg/mL
B4: humanized anti-human CD19 antibody clone 8B8-018 (antibody, V domains shown)
VH: B2 VH with N65Q
VL: B2 VL with S32P
notes: also called CD19 (8B8-018)
